Earlier results, collected in PMC4664829.
Read-outs that look alike come from different tables or passages of the source.

Assays:
[1] = target: T1, Glu14 (UniProt position 14, GAILAEVIGTT); experiment: kinetics; conditions: TPP+ association with substrate-free EmrE
[2] = target: T1, Glu14; conditions: proton release from EmrE

EmrE (small multidrug resistance transporter) (Escherichia coli)
pKa [1]: 7.3
pKa [2]: 8.4
